Source: US20200283482A1, “BICYCLIC PEPTIDE LIGAND PRR-A CONJUGATES AND USES THEREOF” (BicycleRD Limited, priority 2017, published 2020)
Starred links: 1 amine or outer side, 2 acyl side, 3 side chain; linkers in the order of their positions; H or OH if unused. Positions of bridges follow the written chain, without caps; N, C: chain ends. Non-standard residues stand in square brackets, D forms with d. Residues, ends and D or L forms follow the SMILES beside them. *: point of attachment. X11 = CCCOc1nc(NC(=O)OCc2ccc(NC(=O)[C@H](CCCNC(N)=O)NC(=O)[C@@H](NC(=O)Cn3cc(CCC(=O)*)nn3)C(C)C)cc2)c2[nH]c(=O)n(Cc3ccc(OCCN(C)C)nc3)c2n1; X10 = CCCOc1nc(NC(=O)OCCSSC(C)CCC(=O)*)c2[nH]c(=O)n(Cc3ccc(OCCN(C)C)nc3)c2n1; 1Nal = N[C@@H](Cc1cccc2ccccc12)C(=O)O; TBMB = c1c(C[*:1])cc(C[*:3])cc1C[*:2]; Tle = CC(C)(C)[C@H](N)C(=O)O; βAla = NCCC(=O)O; Sar = CNCC(=O)O

Assays:
Type in all cases: in vitro ADME
Plasma stability, human = details: pH 7.4; human plasma, 2 μM, 37° C.; read-out: T1/2 (human)
Protocol: (§1) The pooled frozen mouse, rat, dog, monkey or human plasma is thawed in a water bath at 37° C. prior to experiment. Plasma is centrifuged at 4000 rpm for 5 min and the clots are removed if any. […] For positive controls, 100 μM intermediate solution is prepared by diluting 20 μL of the stock solution with 180 μL 45% MeOH/H2O. […] For compounds I-7 to […]-17, […]-22, and […]-33, at each time point (0, 1, 2, 4, 6 and 24 hr), reactions were stopped by removing the plates from water bath and 200 μL 20 mM NH4OAC mix well first and then adding 800 μL of ice-cold stop solution (200 ng/mL Labetalol, 200 ng/mL Tolbutamide, 500 ng/mL N6-Ben and 40 mM DBAA in 100% Methanol). […] Sample plates were vortexed immediately on a plate shaker at 800 rpm for 10 min and then centrifuged at 4,000 rpm for 10 min. An aliquot of supernatant (200 μL) is transferred from each well before submitting to LC-MS/MS analysis. The percentage of test compound remaining at the individual time points relative to the 0 hour sample is calculated using following equation: Percent Remaining=100×(PAR at appointed incubation time/PAR at T0 time) where PAR is the peak area ratio of analyte versus internal standard (IS).

Plasma stability, cyno = details: cynomolgus monkey, pH 7.4; cyno plasma, 2 μM, 37° C.; read-out: T1/2 (cyno)
Protocol: as §1

Plasma stability, rat = details: pH 7.4; rat plasma, 2 μM, 37° C.; read-out: T1/2 (rat)
Protocol: as §1

Plasma stability, mouse = details: pH 7.4; mouse plasma, 2 μM, 37° C.; read-out: T1/2 (mouse)
Protocol: as §1

Plasma stability, dog = details: pH 7.4; dog plasma, 2 μM, 37° C.; read-out: T1/2 (dog)
Protocol: as §1

Measured: half-life at 2 μM

CCCOc1nc(NC(=O)OCCSSC(C)CCC(=O)NCCC(=O)N(C)CC(=O)N(C)CC(=O)N(C)CC(=O)N(C)CC(=O)N(C)CC(=O)N(C)CC(=O)N(C)CC(=O)N(C)CC(=O)N(C)CC(=O)N(C)CC(=O)N[C@@H](C)C(=O)N[C@H]2CSCc3cc4cc(c3)CSC[C@H](NC(=O)[C@@H](C)NC(=O)[C@H](Cc3cccc5ccccc35)NC(=O)[C@H](CCC(=O)O)NC(=O)[C@H](CC(N)=O)NC(=O)[C@@H](C)NC2=O)C(=O)N[C@@H](CCC(=O)O)C(=O)N[C@@H](CC(=O)O)C(=O)N[C@@H](Cc2ccccc2)C(=O)N[C@@H](Cc2ccc(O)cc2)C(=O)N[C@@H](CC(=O)O)C(=O)N[C@@H](C(C)(C)C)C(=O)N[C@H](C(N)=O)CSC4)c2[nH]c(=O)n(Cc3ccc(OCCN(C)C)nc3)c2n1 (stereo partly shown) [I-17] ({X10-βAla}-[Sar][Sar][Sar][Sar][Sar][Sar][Sar][Sar][Sar][Sar]AC[dA]NE[1Nal][dA]CEDFYD[Tle]C-NH2; linker 12-18-25 via TBMB)
< 2 h: all assays above

CCCOc1nc(NC(=O)OCc2ccc(NC(=O)[C@H](CCCNC(N)=O)NC(=O)[C@@H](NC(=O)Cn3cc(CCC(=O)NCCC(=O)N(C)CC(=O)N(C)CC(=O)N(C)CC(=O)N(C)CC(=O)N(C)CC(=O)N(C)CC(=O)N(C)CC(=O)N(C)CC(=O)N(C)CC(=O)N(C)CC(=O)N[C@@H](C)C(=O)N[C@H]4CSCc5cc6cc(c5)CSC[C@H](NC(=O)[C@@H](C)NC(=O)[C@H](Cc5cccc7ccccc57)NC(=O)[C@H](CCC(=O)O)NC(=O)[C@H](CC(N)=O)NC(=O)[C@@H](C)NC4=O)C(=O)N[C@@H](CCC(=O)O)C(=O)N[C@@H](CC(=O)O)C(=O)N[C@@H](Cc4ccccc4)C(=O)N[C@@H](Cc4ccc(O)cc4)C(=O)N[C@@H](CC(=O)O)C(=O)N[C@@H](C(C)(C)C)C(=O)N[C@H](C(N)=O)CSC6)nn3)C(C)C)cc2)c2[nH]c(=O)n(Cc3ccc(OCCN(C)C)nc3)c2n1 [I-18] ({X11-βAla}-[Sar][Sar][Sar][Sar][Sar][Sar][Sar][Sar][Sar][Sar]AC[dA]NE[1Nal][dA]CEDFYD[Tle]C-NH2; linker 12-18-25 via TBMB)
< 2 h: all assays above
